Where “and” joins values, the source holds several entries; their conditions need not be identical. Equal entries are not always repeated.
B1: Recombinant Fas-Fc (Fc fusion, UniProt P25445 26-173, looked up)
chain: QVTDINSKGLELRKTVTTVETQNLEGLHHDGQFCHKPCPPGERKARDCTVNGDEPDCVPCQEGKEYTDKAHFSSKCRRCRLCDEGHGLEVEINCTRTQNTKCRCKPNFFCNSTVCEHCDPCTKCEHGIIKECTLTSNTKCKEEGSRSN
notes: Fas (CD95/APO-1) part of a bought recombinant Fas-Fc; The reagents section also names a laboratory-made Fas-Fc purified on protein A; the SPR methods name the R&D Systems protein; source: bought: R&D Systems
B2: cleaved FasL (cFasL), spontaneously cleaved membrane FasL (ligand, human, UniProt P48023 127-281, looked up)
chain: LEKQIGHPSPPPEKKELRKVAHLTGKSNSRSMPLEWEDTYGIVLLSGVKYKKGGLVINETGLYFVYSKVYFRGQSCNNLPLSHKVYMRNSKYPQDLVMMEGKMMSYCTTGQMWARSSYLGAVFNLTSADHLYVNVSELSLVNFEESQTFFGLYKL
notes: human FasL, soluble product of the metalloprotease cleavage between amino acids 126 and 127; the C-terminal end 281 is the one printed for the extracellular domain; Homotrimer by gel filtration; also called sFasL; metalloprotease-cleaved FasL; source: COS cells transfected with wild-type FasL, supernatant (spontaneously cleaved by a metalloprotease); for SPR in serum-free medium, concentrated 100 …

What was measured:
Recombinant Fas-Fc = target: B1; assay: SPR; BIAcore 3000; Fas-Fc covalently coupled to a CM5 flow cell (2,000 RU); FasL constructs as concentrated, dialysed COS supernatants flowed over (0.2-100 nM IgFasL, 0.2-44 nM cFasL, 0.2-37.5 nM D2FasL, 0.25-8 nM D1IgD2FasL) in Hepes-buffered saline, 30 ul/min; 5 min association, 11 min dissociation; BIAeval 4.1; settings: one partner purified
[1] = target: the molecule itself; assay: SEC; gel filtration on Sephacryl S-200-HR and S-300-HR columns; concentrated COS supernatants, eluted in PBS at 0.3 ml/min; FasL in the fractions found by ELISA; size of the oligomer of the FasL construct
[2] = target: B2; assay: SPR; BIAcore 3000; Fas-Fc covalently coupled to a CM5 flow cell (2,000 RU); FasL constructs as concentrated, dialysed COS supernatants flowed over (0.2-100 nM IgFasL, 0.2-44 nM cFasL, 0.2-37.5 nM D2FasL, 0.25-8 nM D1IgD2FasL) in Hepes-buffered saline, 30 ul/min; 5 min association, 11 min dissociation; BIAeval 4.1; settings: one partner purified

| Kd (Recombinant Fas-Fc) [nM] | koff (Recombinant Fas-Fc) [s⁻¹] | kon (Recombinant Fas-Fc) [M⁻¹ s⁻¹] | Kd [2] [nM] | koff [2] [s⁻¹] | kon [2] [M⁻¹ s⁻¹] | Binder | stoichiometry N [1] |
| --- | --- | --- | --- | --- | --- | --- | --- |
| 11.6 | 0.00041 | 25000 | – | – | – | pFasL (polymeric soluble FasL; IgFasL chimera: Ig module of gp190 fused to the extracellular domain of hFasL) (ligand, UniProt P42702 246-328, looked up, Ig-like (Ig) module of the LIF receptor gp190, amino acids 246 to 328; extracellular domain of human FasL (hFasL), amino acids 108 to 281; source: COS cells, transiently transfected (pED4 vector), supernatant; for SPR in Opti-MEM, concentrated 100 times, dialysed against PBS; copies: 12) WIPDSQTKVFPQDKVILVGSDITFCCVSQEKVLSALIGHTNCPLIHLDGENVAIKIRNISVSASSGTNVVFTTEDNIFGTVIFQKELAELRESTSQMHTASSLEKQIGHPSPPPEKKELRKVAHLTGKSNSRSMPLEWEDTYGIVLLSGVKYKKGGLVINETGLYFVYSKVYFRGQSCNNLPLSHKVYMRNSKYPQDLVMMEGKMMSYCTTGQMWARSSYLGAVFNLTSADHLYVNVSELSLVNFEESQTFFGLYKL | 12 and 6 |
| – | – | – | 69.4 | 0.0059 | 84000 | B1 | – |
| 38.5 | 0.006 | 160000 | – | – | – | D2FasL (D2 module of gp190 fused to the extracellular domain of hFasL) (ligand, UniProt P42702 329-542, looked up, extracellular domain of human FasL (hFasL), amino acids 108 to 281; source: COS cells, transiently transfected (pED4 vector), supernatant; for SPR in Opti-MEM, concentrated 100 times, dialysed against PBS) AGYPPDTPQQLNCETHDLKEIICSWNPGRVTALVGPRATSYTLVESFSGKYVRLKRAEAPTNESYQLLFQMLPNQEIYNFTLNAHNPLGRSQSTILVNITEKVYPHTPTSFKVKDINSTAVKLSWHLPGNFAKINFLCEIEIKKSNSVQEQRNVTIKGVENSSYLVALDKLNPYTLYTFRIRCSTETFWKWSKWSNKKQHLTTEASPSKGPDTWQKELAELRESTSQMHTASSLEKQIGHPSPPPEKKELRKVAHLTGKSNSRSMPLEWEDTYGIVLLSGVKYKKGGLVINETGLYFVYSKVYFRGQSCNNLPLSHKVYMRNSKYPQDLVMMEGKMMSYCTTGQMWARSSYLGAVFNLTSADHLYVNVSELSLVNFEESQTFFGLYKL | 6 |
| – | – | – | – | – | – | B2 | 3 |
| 25.6 | 0.0033 | 130000 | – | – | – | D1IgD2FasL (D1IgD2 modules of gp190 fused to the extracellular domain of hFasL) (ligand, UniProt P42702 49-542, looked up, extracellular domain of human FasL (hFasL), amino acids 108 to 281; source: COS cells, transiently transfected (pED4 vector), supernatant; for SPR in Opti-MEM, concentrated 100 times, dialysed against PBS) APHDLKCVTNNLQVWNCSWKAPSGTGRGTDYEVCIENRSRSCYQLEKTSIKIPALSHGDYEITINSLHDFGSSTSKFTLNEQNVSLIPDTPEILNLSADFSTSTLYLKWNDRGSVFPHRSNVIWEIKVLRKESMELVKLVTHNTTLNGKDTLHHWSWASDMPLECAIHFVEIRCYIDNLHFSGLEEWSDWSPVKNISWIPDSQTKVFPQDKVILVGSDITFCCVSQEKVLSALIGHTNCPLIHLDGENVAIKIRNISVSASSGTNVVFTTEDNIFGTVIFAGYPPDTPQQLNCETHDLKEIICSWNPGRVTALVGPRATSYTLVESFSGKYVRLKRAEAPTNESYQLLFQMLPNQEIYNFTLNAHNPLGRSQSTILVNITEKVYPHTPTSFKVKDINSTAVKLSWHLPGNFAKINFLCEIEIKKSNSVQEQRNVTIKGVENSSYLVALDKLNPYTLYTFRIRCSTETFWKWSKWSNKKQHLTTEASPSKGPDTWQKELAELRESTSQMHTASSLEKQIGHPSPPPEKKELRKVAHLTGKSNSRSMPLEWEDTYGIVLLSGVKYKKGGLVINETGLYFVYSKVYFRGQSCNNLPLSHKVYMRNSKYPQDLVMMEGKMMSYCTTGQMWARSSYLGAVFNLTSADHLYVNVSELSLVNFEESQTFFGLYKL | 6 |
